Patent US20230108494

How the values were obtained:
[1] = tested on: T1, TAS1 (Rh-based peptide/peptoid hybrid probe, Leu-Leu-Val-Tyr-Rh110-peptoid)
T1 sequence: LLVY

[2] = tested on: T2, library peptide Leu-Leu-Val-Ala-Ala-Ala (negative control)
T2 sequence: LLVAAA

B1: 20S core particle (20S CP) of the proteasome, purified (enzyme, part only; not given: other 20S alpha and beta subunits)
chain: TTTLAFKFRHGVIVAADSRATAGAYIASQTVKKVIEINPYLLGTMAGGAADCSFWERLLARQCRIYELRNKERISVAAASKLLANMVYQYKGMGLSMGTMICGWDKRGPGLYYVDSEGNRISGATFSVGSGSVYAYGVMDRGYSYDLEVEQAYDLARRAIYQATYRDAYSGGAVNLYHVREDGWIRVSSDNVADLHEKYSGSTP
- Rate of Hydrolysis (ΔRFU/min), probe at 30 µM with purified 20S CP [1]: 83.2 ΔRFU/min
- percent cleavage by LC/MS, 12 µM peptide with 9 nM 20S CP for one hour [2]: less than 10% of the peptide cleaved
